Literature values, collected in article PMC8400902.
Read-outs that look alike come from different tables or passages of the source.

Columns and labels:
[1] = biological target: Amyloid beta fibril (Homo sapiens) (UniProt P05067)
[2] = biological target: Amyloid beta (Homo sapiens) (UniProt P05067)
[3] = biological target: Amyloid beta (Homo sapiens) (UniProt P05067); remark: listed apart in the source

Sequence of Serum amyloid P component (P02743 20-222): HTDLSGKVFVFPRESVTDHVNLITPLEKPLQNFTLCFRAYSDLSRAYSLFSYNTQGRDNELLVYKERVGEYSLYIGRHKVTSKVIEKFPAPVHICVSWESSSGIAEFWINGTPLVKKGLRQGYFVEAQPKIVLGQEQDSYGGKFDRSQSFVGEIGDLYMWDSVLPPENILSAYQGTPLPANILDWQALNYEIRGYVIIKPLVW
Sequence of Haptoglobin (P00738 19-160): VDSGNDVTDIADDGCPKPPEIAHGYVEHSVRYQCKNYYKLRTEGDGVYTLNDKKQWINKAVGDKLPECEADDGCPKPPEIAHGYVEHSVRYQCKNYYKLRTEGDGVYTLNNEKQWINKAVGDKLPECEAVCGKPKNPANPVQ
Sequence of Agrin (O00468 1864-2068): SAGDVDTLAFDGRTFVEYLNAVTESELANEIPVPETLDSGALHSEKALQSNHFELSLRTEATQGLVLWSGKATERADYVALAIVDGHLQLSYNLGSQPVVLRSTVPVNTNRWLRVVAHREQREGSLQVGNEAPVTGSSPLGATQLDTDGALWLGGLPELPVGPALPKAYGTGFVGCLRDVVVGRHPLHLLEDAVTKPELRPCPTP

Q: Which Kd [1] does the source give for Agrin (from UniProt O00468) here?
A: 3.5 nM

Q: For Haptoglobin (from UniProt P00738), which Kd [2] is on record?
A: 300 nM

Q: For “Serum amyloid P component (from UniProt P02743)”, which Kd [3] is on record?
A: 6 nM
